This passage reports stoichiometry N results from publication PMC2840394.

The target in this assay is AL-12 variable domain (VL), amyloidogenic immunoglobulin kappa light chain of the κI O18/O8 germline (human (patient AL-12)). Kind of assay: crystal structure.

For orientation: stoichiometry N means the number of molecules, sites or subunits per partner or assembly.

In the case of “AL-12 variable domain (VL), amyloidogenic immunoglobulin kappa light chain of the κI O18/O8 germline (domain or fragment)”, the stoichiometry N was determined as 2.
